Patent US9580469B2, “Peptides for the treatment and early diagnosis of Alzheimer's disease and other tauopathies” (priority 2012, dated 2017)
Where no end group is shown, it is not given here. [ ]: non-standard residue; d: D form.

Legend:
Format in all cases: biochemical
PHF-6 = PHF-6 (Homo sapiens, UniProt P10636); experiment: ThT aggregation assay of PHF-6 (relative fibril content); conditions: 25 μM PHF-6, PHF-6:peptide 1:1 and 1:10, two hours of incubation
Experimental: (§1) In mirror image phage display selections, the selection rounds are carried out against a D-enantiomer as the target, which must be generated synthetically. Since this is not possible for the full-length tau protein (441 amino acids), the selections were carried out against the D-enantiomer of a 6-mer tau fragment (PHF-6), which can be found in tau repeats R2 and R3 and, according to various studies, forms the core of the neurofibrillary tangles (von Bergen, M., Assembly of τ protein into Alzheimer paired helical filaments depends on a local sequence motif (306VQIVYK311) forming β structure PNAS, 1999. 97(10): p. 5129-5134; Miller, M., Synergistic Interactions between Repeats in Tau Protein and Aβ Amyloids May Be Responsible for Accelerated Aggregation via Polymorphic States. 5172-5181, 2011. 50(23): p. 5172-5181). […]
The concentration of PHF-6 was 25 μM; the peptides were measured at a ratio of 1:1 and 1:10 (PHF-6:peptide) and as controls individually in a 25 μM concentration (not shown). The fluorescence of 25 μM PHF-6 after two hours of incubation was set at 100%, and the values and standard deviations of the remaining incubations are indicated as percentages of this maximal value.

full-length tau protein = full-length tau protein (Homo sapiens, UniProt P10636); experiment: ThT aggregation assay of tau with 100 μM arachidonic acid (relative fibril content); conditions: 5 μM tau, tau:peptide 1:1 and 1:10, 24 hours
Sequence of full-length tau protein (P10636 1-441 isoform P10636-8): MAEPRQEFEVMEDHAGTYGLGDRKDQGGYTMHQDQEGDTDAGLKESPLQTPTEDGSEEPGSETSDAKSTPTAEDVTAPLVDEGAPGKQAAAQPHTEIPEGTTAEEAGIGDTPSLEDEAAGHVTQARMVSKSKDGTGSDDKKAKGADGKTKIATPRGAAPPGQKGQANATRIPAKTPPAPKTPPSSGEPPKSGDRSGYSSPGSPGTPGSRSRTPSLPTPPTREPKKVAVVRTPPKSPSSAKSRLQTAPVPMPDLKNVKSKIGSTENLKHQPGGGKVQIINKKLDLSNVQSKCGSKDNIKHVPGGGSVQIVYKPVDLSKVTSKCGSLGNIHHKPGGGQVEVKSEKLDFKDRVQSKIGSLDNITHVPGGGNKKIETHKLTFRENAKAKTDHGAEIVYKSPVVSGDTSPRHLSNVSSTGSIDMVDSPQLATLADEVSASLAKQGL
Experimental: as §1, with “5172-5181). Since aggregated material is to serve as the target for the selection, and monomeric tau protein has important physiological functions and must not be inhibited in vivo, only fribriilary material was used for the selection.” for “5172-5181).”
The concentration of tau was 5 μM; the peptides were added at a ratio of 1:1 and 1:10 (tau:peptide). The fluorescence of 5 μM tau after 24 hours of incubation was set at 100%, and the values and standard deviations of the remaining incubations are indicated as percentages of this maximal value.

tau full-length protein = target: T1, tau full-length protein (Homo sapiens, UniProt P10636); experiment: Dynamic light scattering (DLS) measurements of tau aggregation with arachidonic acid; conditions: for Mass Day 1 / Mass Day 8 / Particle size Day 1 / Particle size Day 8: DLS, 1 μg/ml tau full-length protein, 100 μM arachidonic acid (AA), peptide at ratio 1:10; for Effect on aggregation of tau in DLS (in words): tau full-length protein, 100 μM arachidonic acid, peptide ratio 1:10
T1 construct: Since this is not possible for the full-length tau protein (441 amino acids)
T1 sequence (P10636 1-441 isoform P10636-8): as above
Experimental: For this purpose. 1 μg/ml tau full-length protein was analyzed using 100 μM arachidonic acid and the respective peptide at a ratio of 1:10. Tau without peptide and without the addition of arachidonic acid was measured for control purposes. […] DLS was carried out with an acquisition time of 5 seconds for 3 minutes at room temperature.

tau fibrils = tau fibrils (Homo sapiens, UniProt P10636); experiment: Effect of peptides on existing tau fibrils
Sequence of tau fibrils (P10636 1-441 isoform P10636-8): as above

Row | Substance | Inhibition of aggregation / fibril formation of PHF-6 (PHF-6) | Inhibition of fibrillization / aggregation of the full-length tau protein (full-length tau protein) | Inhibition of fibrillization / aggregation of the full-length tau protein (full-length tau protein; listed as peptide selected by Sievers) | Mass Day 1 (tau full-length protein) | Mass Day 8 (tau full-length protein) | Effect on aggregation of tau in DLS (in words) (tau full-length protein) | Particle size Day 1 (tau full-length protein) | Particle size Day 8 (tau full-length protein) | Effect on existing tau fibrils (tau fibrils)
1 | tlkivw ([dT][dL][dK][dI][dV][dW]) [Sievers, reference compound] | inhibited the aggregation of PHF-6 to a similar degree as that of the peptides we developed | not the aggregation of the full-length tau protein | in most approaches showed no effect at all | 100% | ≧98% | showed no effect on the aggregation of the full-length tau protein |  |  | 
2 | aptilrlhslga |  |  |  | ≧99% | ≧98% |  | 1-fold | 1-fold | dissolve existing tau fibrils
3 | kntpqhrklrls ([dK][dN][dT][dP][dQ][dH][dR][dK][dL][dR][dL][dS]) [D-peptide from selections against D-PHF-6] |  |  |  | ≧99% | ≧99% |  | 1-fold | 1-fold | dissolve existing tau fibrils
4 | ppyylxmqlstt ([dP][dP][dY][dY][dL][dR][dM][dQ][dL][dS][dT][dT]) [TD28ri, retro-inverso peptide of …] |  |  |  | 100% | 100% | formation of very large aggregates | 55-fold | 44-fold | convert tau fibrils into large amorphous aggregates
5 | ttslqmrlyypp ([dT][dT][dS][dL][dQ][dM][dR][dL][dY][dY][dP][dP]) [TD28] |  |  |  | 100% | 100% | formation of very large aggregates | 42-fold | 48-fold | convert tau fibrils into large amorphous aggregates
6 | TTSLQMRLYYPP (not fully specified (some residues)) [TL28, label not defined in the text] |  |  |  | ≧99% | 100% |  |  |  | 
